Legend:
[1] = target: recombinant human GM-CSF (rhGM-CSF) (human) (UniProt P04141); assay: SPR (BIAcore), rhGM-CSF immobilised, analyte 3120 nM
[2] = target: recombinant human GM-CSF (rhGM-CSF) (human) (UniProt P04141); assay: SPR (BIAcore), rhGM-CSF immobilised, analyte 38.5 nM
[3] = target: recombinant human GM-CSF (rhGM-CSF) (human) (UniProt P04141); assay: SPR (BIAcore), kinetic analysis, rhGM-CSF immobilised
[4] = target: recombinant human GM-CSF (rhGM-CSF) (human) (UniProt P04141); assay: SPR (BIAcore), rhGM-CSF immobilised, analyte 347 nM
[5] = target: recombinant human GM-CSF (rhGM-CSF) (human) (UniProt P04141)
[6] = target: recombinant human GM-CSF (rhGM-CSF) (human) (UniProt P04141); assay: SPR (BIAcore), rhGM-CSF immobilised, analyte 116 nM
[7] = target: recombinant human GM-CSF (rhGM-CSF) (human) (UniProt P04141); assay: SPR (BIAcore), rhGM-CSF immobilised, analyte 1040 nM
[8] = target: recombinant human GM-CSF (rhGM-CSF) (human) (UniProt P04141); assay: SPR (BIAcore), rhGM-CSF immobilised, analyte 12.8 nM

- Ka [1]: 1.06e+07 M⁻¹
- Kd [1]: 94.6 nM
- koff [1]: 0.00514 s⁻¹
- kon [1]: 54300 M⁻¹ s⁻¹
- Ka [2]: 2.2e+08 M⁻¹
- Kd [2]: 4.55 nM
- koff [2]: 0.00444 s⁻¹
- kon [2]: 975000 M⁻¹ s⁻¹
- Kd [3]: 50 nM
- Ka [4]: 9.22e+07 M⁻¹
- Kd [4]: 10.8 nM
- koff [4]: 0.00477 s⁻¹
- kon [4]: 440000 M⁻¹ s⁻¹
- inhibition of rhGM-CSF dependent proliferation of TF-1 cells [5]: 6 nM
- Ka [6]: 1.66e+08 M⁻¹
- Kd [6]: 6.01 nM
- koff [6]: 0.00464 s⁻¹
- kon [6]: 772000 M⁻¹ s⁻¹
- Ka [7]: 1.89e+07 M⁻¹
- Kd [7]: 52.8 nM
- koff [7]: 0.0046 s⁻¹
- kon [7]: 87100 M⁻¹ s⁻¹
- Ka [8]: 3.25e+08 M⁻¹
- Kd [8]: 3.07 nM
- koff [8]: 0.00384 s⁻¹
- kon [8]: 1.25e+06 M⁻¹ s⁻¹
B1: half-human SCA B32oN-45 (scFv)
scFv: ELQLVEQSGAALVKPGDSVKMSCKASGYPFTDYIVHWVKQSHGKSLDWIGYINPYSGDTKFNEKFKSKATLTVDKSSSTAYMEFSRLTSEDSAIYYCARSGLIAVYFDYWGQGTTVTVSSGGGGSGGGGSGGGGSELVMTQSPSSVSASVGDRVTIACRASQNIRNILNWYQQRPGKAPQLLIYAASNLQSGVPSRFSGSGSGTDFTLTINSLQPEDFATYYCQQSYSMPRTFGGGTKVEIKTGDYKDDDDK
